2 substances from patent publication EP4786493A1 can be followed below.

In assay [1] the target is human Claudin 18.2 expressed on cells (HEK293/human Claudin 18.2; CHO-K1/human Claudin 18.2) (human) (UniProt P56856). Put plainly: cell-based or functional assay.
Assay [2] addresses recombinant human Claudin 18.2 protein (GenScript, Z03504) (human) (UniProt P56856). Kind of assay: SPR Biacore 8K, antibody captured via Fc, human Claudin 18.2 protein as analyte. On the technique in general: Surface plasmon resonance follows binding to a sensor surface in real time, without labels.
Assay [3] shares this target. Kind of assay: competition ELISA on coated recombinant human Claudin 18.2; unlabelled IMAB362 against biotinylated IMAB362 (0.72 µg/ml).
Assay [4] has the same target. Kind of assay: indirect ELISA, plate coated with recombinant human Claudin 18.2, anti-human IgG Fc-HRP detection. A general note: ELISA stands for enzyme-linked immunosorbent assay.
The target of assay [5] is human Claudin 18.2 expressed on cells (HEK293/human Claudin 18.2; CHO-K1/human Claudin 18.2) (human) (UniProt P56856). Kind of assay: flow cytometry on HEK293 cells expressing human Claudin 18.2. (A flow cytometer gives signals particle by particle.)

In assay [1], Human IgG1 (antibody) had an ADCC reporter gene assay (CHO-K1/Claudin 18.2 target cells, GS-J2C/CD16A 158V effector cells): EC50 of 352 nM; an ADCC reporter gene assay (CHO-K1/Claudin 18.2 target cells, GS-J2C/CD16A 158V effector cells): Top of 90500; a CDC on CHO-K1/human Claudin 18.2 cells: EC50 of 23.7; a CDC on CHO-K1/human Claudin 18.2 cells: Top of 5.61%.
“Zolbetuximab (IMAB362, HuIgG1) (antibody)”: in assay [2], the Kd – broadly, a measure of binding affinity in units of concentration – came to 39.3 nM. Further, in assay [3], the IC50 (usually the concentration at which inhibition is half-maximal) amounted to 1.79 nM. Also, in assay [4], the EC50 (usually the concentration that produces a half-maximal response) amounted to 1.53 nM. In assay [1], this substance returned an ADCC reporter gene assay (CHO-K1/Claudin 18.2 target cells, GS-J2C/CD16A 158V effector cells): EC50 of 0.758 nM; an ADCC reporter gene assay (CHO-K1/Claudin 18.2 target cells, GS-J2C/CD16A 158V effector cells): Top of 213000; a CDC on CHO-K1/human Claudin 18.2 cells: Top of 93%. For the same substance, in assay [5], the EC50 was 7.8 nM.
